In general, kcat refers to the maximal rate divided by the concentration of active sites. The stoichiometry N is a count of units in the complex or per binding partner.

The values that follow come from publication PMC11609450, “Structure function analysis of ADP-dependent cyanobacterial phosphofructokinase reveals new phylogenetic grouping in the PFK-A family” (The Journal of Biological Chemistry, 2024).

In series [1] the target is T1, PFK-A2 from M. aeruginosa PCC 9808 (Microcystis aeruginosa, UniProt I4HJC6).
T1 construct: gene pfkA; codon-optimized gene in pET15b, His tag, E. coli Rosetta (DE3), IMAC
T1 sequence (I4HJC6 1-402): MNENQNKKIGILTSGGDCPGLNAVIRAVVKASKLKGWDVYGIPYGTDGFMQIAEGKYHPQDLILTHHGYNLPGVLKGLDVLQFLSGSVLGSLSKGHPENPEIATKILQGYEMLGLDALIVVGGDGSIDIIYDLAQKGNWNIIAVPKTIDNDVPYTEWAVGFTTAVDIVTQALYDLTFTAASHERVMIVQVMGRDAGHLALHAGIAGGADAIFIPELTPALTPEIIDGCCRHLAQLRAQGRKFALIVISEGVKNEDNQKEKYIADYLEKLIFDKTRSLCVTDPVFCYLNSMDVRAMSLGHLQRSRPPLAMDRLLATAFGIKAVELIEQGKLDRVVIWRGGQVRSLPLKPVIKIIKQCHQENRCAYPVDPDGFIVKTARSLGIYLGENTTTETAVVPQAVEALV
The series is described as follows: coupled NADH assay, phosphate donor specificity. The format is biochemical. The settings on record: 1 mM F6P, 2 mM ADP, 10 mM MgCl2, pH 7.7, 30 °C.

In series [2] the target is T2, PFK-A1 from A. brasilense (Azospirillum brasilense, UniProt A0A560AK87).
T2 construct: gene pfkA; codon-optimized gene in pET15b, His tag, E. coli Rosetta (DE3), IMAC
T2 sequence (A0A560AK87 1-361): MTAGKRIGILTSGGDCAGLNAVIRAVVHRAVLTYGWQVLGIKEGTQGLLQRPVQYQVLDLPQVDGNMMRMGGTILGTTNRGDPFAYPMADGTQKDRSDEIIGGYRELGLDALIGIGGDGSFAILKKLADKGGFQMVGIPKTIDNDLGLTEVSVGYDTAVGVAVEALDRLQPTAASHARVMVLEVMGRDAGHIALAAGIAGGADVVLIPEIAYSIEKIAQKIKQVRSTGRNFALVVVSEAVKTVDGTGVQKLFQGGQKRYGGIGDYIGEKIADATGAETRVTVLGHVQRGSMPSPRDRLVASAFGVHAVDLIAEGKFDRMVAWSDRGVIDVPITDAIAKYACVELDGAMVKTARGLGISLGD
The series is described as follows: coupled NADH assay, phosphate donor specificity. The format is biochemical. The settings on record: 1 mM F6P, 2 mM ADP, 10 mM MgCl2, pH 7.7, 30 °C.

Series [3] has as its target T3, PFK-A1 from Crocosphaera subtropica (Crocosphaera subtropica, UniProt B1WQ98).
T3 construct: gene pfkA1; codon-optimized gene in pET15b, His tag, E. coli Rosetta (DE3), IMAC
T3 sequence (B1WQ98 1-360): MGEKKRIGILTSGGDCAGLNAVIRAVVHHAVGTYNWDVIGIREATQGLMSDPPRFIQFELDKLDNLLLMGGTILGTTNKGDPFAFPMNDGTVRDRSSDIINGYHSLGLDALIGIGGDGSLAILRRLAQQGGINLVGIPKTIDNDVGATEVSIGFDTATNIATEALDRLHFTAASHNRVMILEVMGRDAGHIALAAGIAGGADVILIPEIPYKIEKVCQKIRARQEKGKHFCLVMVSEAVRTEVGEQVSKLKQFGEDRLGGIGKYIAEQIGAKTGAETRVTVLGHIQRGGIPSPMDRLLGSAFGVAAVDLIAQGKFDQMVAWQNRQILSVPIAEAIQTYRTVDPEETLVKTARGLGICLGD
The series is described as follows: coupled NADH assay, phosphate donor specificity. The settings on record: 1 mM F6P, 2 mM ADP, 10 mM MgCl2, pH 7.7, 30 °C. The format is biochemical.

The target of series [4] is T4, PFK-A1 (Sll1196) (Synechocystis sp. PCC 6803, UniProt P72830).
T4 construct: gene pfkA1
The series is described as follows: coupled NADH assay, effector test. The format is biochemical. To be noted: read-out: % residual activity at 1 mM.

The target in another series is T5, PFK-A2 (Sll0745) (Synechocystis sp. PCC 6803, UniProt Q55988).
T5 construct: gene pfkA2
Briefly: coupled NADH assay (aldolase/TPI/GPDH), […] nm; global MWC fit. The series is classed as biochemical.

For series [5], the target named is T4, PFK-A1 (Sll1196). The series is described as above. The format is biochemical. The settings on record: read-out: PFK-A11.
Substrate in the series “purified protein”: Nc1ncnc2c1ncn2[C@@H]1O[C@H](COP(=O)(O)OP(=O)(O)O)[C@@H](O)[C@H]1O
The series is described as follows: purified protein. The settings on record: MWC R-state constant, co-substrate F6P. The series is classed as biochemical, Synechocystis sp. PCC 6803.

Series [6] deals with the molecule itself. Briefly: native MS; nanoESI, Exactive Plus EMR Orbitrap, positive EMR mode; protein rebuffered to 200 mM or 1 M ammonium acetate pH 6.8, 5 uM stock; PFK-A1 also with F6P; self-association.
Series [7] deals with the molecule itself. The series is described as follows: SEC; HiLoad 16/600 Superdex 200 prep grade, 50 mM HEPES/NaOH pH 7.5 (RT), 300 mM NaCl, 3 mM dithiothreitol, 1 ml/min; calibrated with five standard proteins; PFK-A1 applied at 5 mg/ml (62.5 uM), PFK-A2 at 7 mg/ml (87.5 uM); self-association. A general note: In gel filtration, larger molecules generally elute earlier.

Turning to `Nc1ncnc2c1ncn2[C@@H]1O[C@H](COP(=O)(O)OP(=O)(O)O)[C@@H](O)[C@H]1O` [ADP], the “coupled NADH assay, phosphate donor specificity” value is “all three tested enzymes were specific for ADP and showed no activity with ATP” in series [1]; “all three tested enzymes were specific for ADP and showed no activity with ATP” in series [2]; “all three tested enzymes were specific for ADP and showed no activity with ATP” in series [3].

With `Nc1ncnc2c1ncn2[C@@H]1O[C@H](COP(=O)(O)OP(=O)(O)OP(=O)(O)O)[C@@H](O)[C@H]1O` [ATP], the remaining activity at 1000 µM at PFK-A1 (Sll1196) [4] came to 96%. Moreover, at PFK-A2 (Sll0745), the Ki turned out to be 200 µM.

Consider `O=C(O)[C@H](O)COP(=O)(O)O` [3PG], for which the Ki at PFK-A1 (Sll1196) [5] is 110 µM.

Turning to `C=C(OP(=O)(O)O)C(=O)O` [PEP], the remaining activity at 1000 µM at PFK-A1 (Sll1196) [4] is 86%.

B1: Synechocystis sp. PCC 6803 ADP-dependent phosphofructokinase PFK-A2 (Sll0745) (enzyme, UniProt Q55988 1-384, looked up)
chain: MGTKRIGILTSGGDCPGLNAVIRAVVKASALKGWEVYGIPYGTDGFVEVAHGKYQAEDLLLTKHGYALPGMLKGLDVLQFLSGSVLGSLSKGHPEQPAIAEAILKGYAILDLEALIVIGGDGSLDIIYDLAQKGNWHIIAIPKTIDNDVPFTDLAVGFSTAVDIVTQALYDLTFTAASHERIIIVQVMGRDAGHLTLHAGIAGGADIILIPEITPCLTSEIIRNCCYQLMNLRKSGRHFALIVISEGVHDQNNKKNKHIADYLAEEISETSQHLCDIKDPAFCDLISLDIRATTLGHLQRSGTPLSFDRLLATVFGIRAVELIEQEIYDQVVIWRSGKVEHADLKPIISIIKECHQENRCPFPVDRDGFMVKTAKSLGIYLGED
notes: Phosphofructokinase isoenzyme PFK-A2 (sll0745) of Synechocystis sp; PCC 6803, amplified from genomic DNA with primers from the start codon (NdeI) to the stop codon (BamHI); calculated mass 43.64 kDa; Mainly dimer by SEC and native MS, with a lesser tetramer by native MS, so copies is left empty; No tag cleavage is described; also called ADP-PFK-A2; source: E. coli Rosetta (DE3), pET15b, purified …
Take B1: the Km in the series “purified protein” (5 mM MgCl2, pH 7.7, 30 °C) is given as 0.17 (±0.03) mM. Further, the kcat in “purified protein” (5 mM MgCl2, pH 7.7, 30 °C) came out at 12.3 s⁻¹. Further, the “stoichiometry N” value in series [6] was found to be 4; in series [7], 2.

B2: Synechocystis sp. PCC 6803 ADP-dependent phosphofructokinase PFK-A1 (Sll1196) (enzyme, UniProt P72830 1-361, looked up)
chain: MGEIKRIGILTSGGDCAGLNAVIRSVVHHAIGTYGWEVIGIQEATQGLMENPSKAIALHRDNIDHLLMMGGTFLGTTNKGNPFAFPMADGTVRDRTEDIIAGYRQLGLDALIGIGGDGSLAILRRIAQQGGINLVGIPKTIDNDVGATEISIGFDTATNIATEALDRLHFTAASHNRVMVLEVMGRDAGHIALAAGIGGGADIILIPEIPYRIQSVCNKIRQRQAEGKNFCLVMVSEAVRTELGDQVKQIQQFGEDRYGGIGKYIAEQIAQRTGAETRVTVLGHIQRGGIPSPFDRLLGSVFGVAAVDLIAEGKFDHMVAWRNRQTISVPIEEAIQTYQTVQLDGTLVKTARGLGICLGND
notes: Phosphofructokinase isoenzyme PFK-A1 (sll1196) of Synechocystis sp; PCC 6803, amplified from genomic DNA with primers from the start codon (NdeI) to the stop codon (BamHI); calculated mass 40.47 kDa; Oligomeric state differs by method (dimer by SEC, mainly tetramer by native MS), so copies is left empty; No tag cleavage is described; also called ADP-PFK-A1; source: E. coli Rosetta (DE3), pET15b, …
With B2, in “purified protein” (10 mM MgCl2, pH 7.7, 30 °C), the Km is 0.14 (±0.01) mM and the kcat worked out at 5.9 s⁻¹. Further, the “stoichiometry N” value in [6] turned out to be 4. The “stoichiometry N” value in series [7] was determined as 2.
